Results taken from PMC12697855, “Distinct Phage‐Encoded Enzymes for Substitution of Deoxythymidine by Deoxyuridine in Phage Genomes” (Advanced Science, 2025).

Key:
Dtt_PhiR1‐37 = tested on: T1, Dtt_PhiR1‐37; assay: phosphomolybdate phosphate release, coupled inorganic pyrophosphatase IPP1; assay type: biochemical, Yersinia phage phiR1-37; conditions: 2 mM Mg2+, 50 mM Tris-HCl pH 7.5, room temperature; read-out: kinetic parameters
T1 construct: gene Dtt; recombinant from codon-optimized synthetic gene in HMT plasmid, N-terminal His6-MBP tag, amylose column, E. coli
From the text: phosphomolybdate phosphate release, coupled inorganic pyrophosphatase IPP1 on Dtt_PhiR1‐37

Dcd_PBS1 = target: T2, Dcd_PBS1 (Bacillus phage PBS1, UniProt A0A223LD31); assay: inhibition of dCTP deamination (details in supplement); assay type: biochemical; conditions: inhibitor (negative regulation); also the reaction product
T2 construct: gene 112; recombinant from codon-optimized synthetic gene in HMT plasmid, N-terminal His6-MBP tag, amylose column, E. coli
T2 sequence (A0A223LD31 1-176): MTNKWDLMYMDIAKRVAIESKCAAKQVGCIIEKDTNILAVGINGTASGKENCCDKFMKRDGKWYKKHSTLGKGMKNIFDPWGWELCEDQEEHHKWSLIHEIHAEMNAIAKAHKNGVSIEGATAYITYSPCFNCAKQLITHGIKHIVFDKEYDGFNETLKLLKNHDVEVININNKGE

Dcd_PhiR1‐37 = tested on: T3, Dcd_PhiR1‐37; assay: UV absorbance at […] nm, deamination; assay type: biochemical, Yersinia phage phiR1-37; conditions: Mg2+ (table; methods text says 2 mM Mn2+), 50 mM Tris-HCl pH 7.5, room temperature; read-out: kinetic parameters
T3 construct: gene Dcd; recombinant from codon-optimized synthetic gene in HMT plasmid, N-terminal His6-MBP tag, amylose column, E. coli

purified protein [1] = substrate: Nc1ccn([C@H]2C[C@H](O)[C@@H](COP(=O)(O)OP(=O)(O)OP(=O)(O)O)O2)c(=O)n1; assay: purified protein; assay type: biochemical, Bacillus phage PBS1; conditions: 2 mM Mn2+, 50 mM Tris-HCl pH 7.5, room temperature
purified protein [2] = substrate: Nc1ccn([C@H]2C[C@H](O)[C@@H](COP(=O)(O)O)O2)c(=O)n1; assay: purified protein; assay type: biochemical, Exiguobacterium artemiae; conditions: Co2+ is best metal (methods text for kinetics says 2 mM Mn2+), 50 mM Tris-HCl pH 7.5, room temperature
purified protein [3] = substrate: Nc1ccn([C@H]2C[C@H](O)[C@@H](COP(=O)(O)OP(=O)(O)OP(=O)(O)O)O2)c(=O)n1; assay: purified protein; assay type: biochemical, Exiguobacterium artemiae; conditions: Co2+ is best metal (methods text for kinetics says 2 mM Mn2+), 50 mM Tris-HCl pH 7.5, room temperature
purified protein [4] = substrate: Nc1ccn([C@H]2C[C@H](O)[C@@H](COP(=O)(O)OP(=O)(O)O)O2)c(=O)n1; assay: purified protein; assay type: biochemical, Exiguobacterium artemiae; conditions: Co2+ is best metal (methods text for kinetics says 2 mM Mn2+), 50 mM Tris-HCl pH 7.5, room temperature
purified protein [5] = substrate: Nc1ccn([C@H]2C[C@H](O)[C@@H](COP(=O)(O)O)O2)c(=O)n1; assay: purified protein; assay type: biochemical, Bacteriophage DSS3_VP1; conditions: 2 mM Mn2+, 50 mM Tris-HCl pH 7.5, room temperature
purified protein [6] = substrate: Nc1ccn([C@H]2C[C@H](O)[C@@H](COP(=O)(O)OP(=O)(O)OP(=O)(O)O)O2)c(=O)n1; assay: purified protein; assay type: biochemical, Bacteriophage DSS3_VP1; conditions: 2 mM Mn2+, 50 mM Tris-HCl pH 7.5, room temperature
purified protein [7] = substrate: Nc1ccn([C@H]2C[C@H](O)[C@@H](COP(=O)(O)OP(=O)(O)O)O2)c(=O)n1; assay: purified protein; assay type: biochemical, Bacteriophage DSS3_VP1; conditions: 2 mM Mn2+, 50 mM Tris-HCl pH 7.5, room temperature
[8] = substrate: Cc1cn([C@H]2C[C@H](O)[C@@H](COP(=O)(O)O)O2)c(=O)[nH]c1=O; assay: phosphomolybdate phosphate release; assay type: biochemical, Bacillus phage PBS1; conditions: Mg2+ (table; methods text says 2 mM Co2+), 50 mM Tris-HCl pH 7.5, room temperature
From the text: phosphomolybdate phosphate release on Dtm_PBS1

[9] = substrate: Cc1cn([C@H]2C[C@H](O)[C@@H](COP(=O)(O)O)O2)c(=O)[nH]c1=O; assay: phosphomolybdate phosphate release; assay type: biochemical, Bacteriophage DSS3_VP1; conditions: 2 mM Co2+, 50 mM Tris-HCl pH 7.5, room temperature
From the text: (§1) phosphomolybdate phosphate release on Dtm_DSS3_VP1

[10] = substrate: O=c1ccn([C@H]2C[C@H](O)[C@@H](COP(=O)(O)O)O2)c(=O)[nH]1; assay: phosphomolybdate phosphate release; assay type: biochemical, Bacteriophage DSS3_VP1; conditions: 2 mM Co2+, 50 mM Tris-HCl pH 7.5, room temperature
From the text: as §1

purified protein [11] = substrate: Nc1ccn([C@H]2C[C@H](O)[C@@H](COP(=O)(O)O)O2)c(=O)n1; assay: purified protein; assay type: biochemical, Sulfurimonas gotlandica; conditions: 2 mM Mn2+, 50 mM Tris-HCl pH 7.5, room temperature
purified protein [12] = substrate: Nc1ccn([C@H]2C[C@H](O)[C@@H](COP(=O)(O)OP(=O)(O)OP(=O)(O)O)O2)c(=O)n1; assay: purified protein; assay type: biochemical, Sulfurimonas gotlandica; conditions: 2 mM Mn2+, 50 mM Tris-HCl pH 7.5, room temperature
purified protein [13] = substrate: Nc1ccn([C@H]2C[C@H](O)[C@@H](COP(=O)(O)OP(=O)(O)O)O2)c(=O)n1; assay: purified protein; assay type: biochemical, Sulfurimonas gotlandica; conditions: 2 mM Mn2+, 50 mM Tris-HCl pH 7.5, room temperature

In the case of `O=c1ccn([C@H]2C[C@H](O)[C@@H](COP(=O)(O)OP(=O)(O)OP(=O)(O)O)O2)c(=O)[nH]1` [dUTP], the Km (Dtt_PhiR1‐37) is reported as 145 ± 16 µM and the “inhibition of dCTP deamination (details in supplement)” value (Dcd_PBS1) is reported as “Bacillus phage PBS1 Dcd is negatively regulated by dUTP (Figure S9, Supporting Information)”.

Molecule `Nc1ccn([C@H]2C[C@H](O)[C@@H](COP(=O)(O)OP(=O)(O)OP(=O)(O)O)O2)c(=O)n1` [dCTP] has a Km (Dcd_PhiR1‐37) of 117 ± 31 µM.

`Cc1cn([C@H]2C[C@H](O)[C@@H](COP(=O)(O)OP(=O)(O)OP(=O)(O)O)O2)c(=O)[nH]c1=O` [dTTP] showed a Km (Dtt_PhiR1‐37) of 108 ± 11 µM.

With `Nc1nc2c(ncn2[C@H]2C[C@H](O)[C@@H](COP(=O)(O)OP(=O)(O)OP(=O)(O)O)O2)c(=O)[nH]1` [dGTP] the Km (Dtt_PhiR1‐37) was 440 ± 110 µM.

B1: Dcd_PBS1 (Bacillus phage PBS1) (protein)
chain: MTNKWDLMYMDIAKRVAIESKCAAKQVGCIIEKDTNILAVGINGTASGKENCCDKFMKRDGKWYKKHSTLGKGMKNIFDPWGWELCEDQEEHHKWSLIHEIHAEMNAIAKAHKNGVSIEGATAYITYSPCFNCAKQLITHGIKHIVFDKEYDGFNETLKLLKNHDVEVININNKGE
notes: recombinant from codon-optimized synthetic gene in HMT plasmid, N-terminal His6-MBP tag, amylose column, E. coli
Work on B1 yielded a Km (purified protein [1]) of 137 ± 23 µM and a kcat (purified protein [1]) of 15.4 ± 1 s⁻¹.

B2: E. sibiricum cytidine nucleotide deaminase (Exiguobacterium artemiae 255-15) (protein)
chain: MMKKQHQWDTTWLLFARMMADRHSKCASKSVACVIVKDEKPISIGINGTPSQHVNCNEIYLKQDNILYKAEAERQQEKADALSIVHNGQVFYRCDNQEEHHEWSKMNEIHAEINALGKLAADSTSARHATAYVTHSPCHACSLALIASKIDRVVYSTGYEYGDGLTLMRQSEIEVLHRPLTEEYFLERIFDKDL
notes: as for B1
Molecule B2 has a Km (purified protein [2]) of 415 ± 143 µM, a kcat (purified protein [2]) of 0.05 ± 0.01 s⁻¹ and a Km (purified protein [3]) of 186 ± 35 µM. For the same molecule, the kcat (purified protein [3]) was 0.9 ± 0.1 s⁻¹, the Km (purified protein [4]) was 179 ± 31 µM and the kcat (purified protein [4]) was 21.2 ± 1.9 s⁻¹.

B3: Dcd_DSS3_VP1 (Bacteriophage DSS3_VP1) (protein)
chain: MHSWDKRFMEMAELVASWSKDPRTKVGCVLADSKHRVLGVGYNGFPRGVNDRDDRYANREVKLAMVKHAEENAVFNAAKHDLSDAVAYVTLAPCSSCAGTLIQAGVRRVVFPEPDPEHMTRHYGNYELMLQMLSEARVLKSVITKEGVIK
notes: as for B1
In the case of B3, the Km (purified protein [5]) is reported as 257 ± 55 µM, the kcat (purified protein [5]) is reported as 1 ± 0.1 s⁻¹ and the Km (purified protein [6]) is reported as 114 ± 22 µM. The kcat (purified protein [6]) was 8.9 ± 0.7 s⁻¹, the Km (purified protein [7]) was 144 ± 44 µM and the kcat (purified protein [7]) was 5.6 ± 0.8 s⁻¹.

B4: Dtm_PBS1 (Bacillus phage PBS1) (protein)
chain: MFSIKEPFSIVTDCDEVLTDISPLWVHKIQQNADYFGKYFDLSKLEGLEFGTFEHYQTVLSRPEFHLNKWLRKENLVLSDEEEKELFERFYSLYDNDEFYEDCMPTKMCEGIYKLSLQKFVDKIYVVTRTSEGTKEGKRKFIETFLNSNKVEIIFVGKNEKKSDYIKNLKNVKMIVEDELSNINDIVENCNDGFEEVDIYIPSTGYNNKDIDGFNENLMKKGFNAVPYVIIERPETEEKAV
notes: recombinant from pCold TF, E. coli BL21(DE3), N-terminal His6-Trigger factor-TEV site tag, Ni-NTA; tag kept
B4 showed a Km [8] of 42 ± 8 µM and a kcat [8] of 0.0317 ± 0.0017 s⁻¹.

B5: Dtm_DSS3_VP1 (Bacteriophage DSS3_VP1) (protein)
chain: MCNEKIALGYELYTSGYVNRYHSHPHPHLRNAQDLTDAHSNRMVKLLYLFFPELAHRGTLVAYIVMHDAGESASGDSPFTAKIANPKLKEALDEVEGQRLAQFYGLFQNDLRIDLTQKEENVVKLLDLLESFLFQAIHAPGRMDEEHHLFQNIEKRARELEVYPEVRCMMMHALHRNNAATKGY
notes: as for B1
B5 gave a Km [9] of 22 ± 4 µM, a kcat [9] of 3.1 ± 0.1 s⁻¹ and a Km [10] of 170 ± 15 µM. It also gave a kcat [10] of 1 ± 0.1 s⁻¹.

B6: S. gotlandica cytidine nucleotide deaminase (Sulfurimonas gotlandica GD1) (protein)
chain: MLSDQNFINIAQELATASKCVSKQVGAVIVKDGRILSTGYNGTPAGFTNCCDHWNGEYTPDHHEWSKTYEIHAEMNAIIWAARKGISIEGASIFVTLEPCSECSKNLIASGIKRIVYAKEYEHTHSDTISKFIKDNGVSIEQLAPKV
notes: as for B1
With B6 the Km (purified protein [11]) was 661 ± 178 µM, the kcat (purified protein [11]) was 0.28 ± 0.05 s⁻¹ and the Km (purified protein [12]) was 293 ± 88 µM. The kcat (purified protein [12]) was 0.06 ± 0.01 s⁻¹, the Km (purified protein [13]) was 271 ± 90 µM and the kcat (purified protein [13]) was 0.5 ± 0.1 s⁻¹.
